T1: human progastrin (human, UniProt P01350 22-101)
T1 construct: also called hPG; PG
T1 sequence: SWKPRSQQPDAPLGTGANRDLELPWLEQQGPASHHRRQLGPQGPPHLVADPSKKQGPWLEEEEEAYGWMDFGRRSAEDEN

B1: mAb4 (hybridoma 20D2C3G2) (antibody, V domains shown)
VH: QVQLQQSGAELMKPGASVKISCKATGYTFSSSWIEWLKQRPGHGLEWIGEFLPGSGSTDYNEKFKGKATFTADTSSDTAYMLLSSLTSEDSAVYYCATDGNYDWFAYWGQGTLVTVSA
VL: DLVMTQTPLSLPVSLGDQASISCRSSQSLVHSSGVTYLHWYLQKPGQSPKLLIYKVSNRFSGVPDRFSGSGSGTDFTLKISRVEAEDLGVYFCSQSTHVPPTFGSGTKLEIK
notes: Murine monoclonal antibody
B2: mAb3 (hybridoma 6B5B11C10) (antibody, V domains shown)
VH: EVQLQQSGTVLARPGASVKMSCKASGYIFTSYWVHWVKQRPGQGLEWIGGFYPGNSDSRYNQKFKGKATLTAVTSASTAYMDLSSLTNEDSAVYFCTRRDSPQYWGQGTTLTVSS
VL: DVLMTQTPLSLPVSLGDQASISCRSSQSIVHSNGNTYLEWYLQKPGQSPKLLIYKVSNRFSGVPDRFSGSGSGTDFTLKISRLEAEDLGVYYCFQGSHVPFTFGGGTKLEIK
notes: Murine monoclonal antibody
B3: mAb16 (hybridoma 1E9D9B6) (antibody, V domains shown)
VH: QVQLQQSGAELVKPGASVKLSCKASGYTFTSYYMYWVKQRPGQGLEWIGEINPSNGGTNFNEKFKSKATLTVDKSSSTAYMQLSSLTSEDSAVYYCTRGGYYPFDYWGQGTTLTVSS
VL: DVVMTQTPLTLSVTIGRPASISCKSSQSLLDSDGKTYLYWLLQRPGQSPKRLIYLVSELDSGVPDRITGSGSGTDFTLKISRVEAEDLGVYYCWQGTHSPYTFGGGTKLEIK
notes: Murine monoclonal antibody
B4: mAb13 (hybridoma 2C6C3C7) (antibody, V domains shown)
VH: EVQLVESGGGLVQPGGSLKLSCAASGFIFSSYGMSWVRQSPDRRLELVASINTFGDRTYYPDSVKGRFTISRDNAKNTLYLQMTSLKSEDTAIYYCARGTGTYWGQGTTLTVSS
VL: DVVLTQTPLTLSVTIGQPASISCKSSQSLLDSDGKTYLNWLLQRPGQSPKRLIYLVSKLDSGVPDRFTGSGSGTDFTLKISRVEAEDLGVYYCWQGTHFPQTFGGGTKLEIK
notes: Murine monoclonal antibody
B5: mAb19 (hybridoma 1B3B4F11) (antibody, V domains shown)
VH: DVQLQESGPGLVKPSQSLSLTCTVTGYSITSDYAWNWIRQFPGNKLEWMGYISFSGYTSYNPSLKSRISVTRDTSRNQFFLQLTSVTTEDTATYYCAREVNYGDSYHFDYWGQGTIVTVSS
VL: QLALTQSSSASFSLGASAKLTCTLSSQHRTYTIEWYQQQSLKPPKYVMEVKKDGSHSTGHGIPDRFSGSSSGADRYLSISNIQPEDEAIYICGVGDAIKGQSVFVFGGGTKVTVL
notes: Murine monoclonal antibody

The assay deals with T1, human progastrin. Put plainly: epitope mapping (no details given).
For B1, the binding result is “binds”. For the molecule B2, the binding result is “binds”.

For B3, the binding result is recorded as “binds”.

For B4, the binding result was “binds”. Then B5, with “binds”.

The values are drawn from patent US20200400675A1 (ECS PROGASTRIN, published 2020).
